Reference: the supplement of paper PMC12042874
± gives the uncertainty stated by the source.

experiment: amyloid nucleation score (Sup35N fusion, yeast selection) (log enrichment); library NNK2; higher = more nucleation; inactive = no reads after selection
In short: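 The nucleation score, computed with DiMSum, is the log enrichment of output over input reads, centred on the mode score of non-aggregating sequences. Sequences with under 100 input reads were dropped. Reads were generated by Illumina sequencing of plasmid inserts from psi-negative yeast with Sup35N fused to peptides of 20 random codons, induced with 100 μM copper sulfate for 24 hours and grown 7 days at 30°C on medium lacking adenine and uracil.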

Row | Substance | amyloid nucleation score
1 | IKCKKKYRSYWNRG | -0.27 ± 0.46
2 | CFSRIFICN | -0.075 ± 0.49
3 | FKSVLWCKFLTDIG | 6.04 ± 0.064
4 | FALNLFCEDKCLYCSLVSS | 2.92 ± 0.066
5 | LLGARDFGWGLHGLLGYRLG | 0.123 ± 0.56
6 | SCFGNVYGGVVLQAFGGVVS | 0.082 ± 1.1
7 | SLFITASYYNFRG | 3.62 ± 0.049
8 | VLLSKGRNHSPCVHILAIIP | 0.494 ± 0.8
9 | HVGVHSNFLQIS | -1.34 ± 1
10 | YVYMSYPYIILLFHYMSSDW | inactive
11 | RSSSCSNVMMVE | 0.935 ± 0.34
12 | IVLQSGR | -1.12 ± 0.63
13 | PAYLDPCTSFSVILAMVLLW | 0.697 ± 0.55
14 | YIIRRYWARPSYVNSFM | -0.31 ± 0.74
15 | VGCIYRTQDCCSRDMVCIRV | 0.071 ± 0.79
16 | ENVFDCNRFY | inactive
17 | IFDQVNSRYRYAVGYGKW | inactive
18 | LLGSLLIFPMES | -1.52 ± 0.78
19 | KTNHEELKA | inactive
20 | QWRINSRLFG | -0.266 ± 0.22
21 | TGKLCSSIKWWGT | 1.06 ± 0.39
22 | GGYDGVSQMCHFEITWNWMT | 1.37 ± 0.29
23 | FPIVFTTKCDIFLSYSLLPS | 1.7 ± 0.13
24 | AVPCNC | -0.216 ± 0.62
25 | NQLVWSLNNDLGMENVGGRV | 1.46 ± 0.44

Row | Substance | amyloid nucleation score
26 | LTYILFGYFMASCFMCFFVS | 0.138 ± 1.1
27 | FCFISSYVPKLYSLKSQVVI | -0.988 ± 0.39
28 | VASKGCRYYNRLADFLHWSK | 0.027 ± 0.74
29 | EEKEVDVEVGRETHMSARDN | 0.563 ± 0.15
30 | GQVRSFCTGEG | -0.677 ± 1
31 | VGSVK | -0.394 ± 1.1
32 | TMYYRNRGLVSEPKNYNGNE | -0.246 ± 0.61
33 | GMGSSRGQRSTYYYGDLAYA | 0.96 ± 0.21
34 | HGKRFYAECLIVFPIDKRGA | 0.098 ± 1
35 | CFVWIIRLYVQSRMLSTSNL | -0.181 ± 0.8
36 | LRHDR | 0.43 ± 0.32
37 | RVGCLWFRLYPLYSGFMRSR | -1.08 ± 1
38 | FEGWVWFIPEASEHSYEHVN | -0.002 ± 1
39 | GREVHALPHEGMVDRSGRGT | 1.29 ± 0.16
40 | GILVRRYAWSELMNGED | 0.116 ± 0.49
41 | TDSRFLWGSKRNHCVRWCML | -0.242 ± 1.1
42 | EFLLYRTSVP | -0.205 ± 0.76
43 | KVRDCIMPRCRGRVCICNYG | -0.29 ± 0.25
44 | YFVRFEDIGWTVSVHTGDSG | -0.063 ± 0.45
45 | YDNKASDVMVNYLRHICVYS | inactive
46 | LSLFLLVICSSAFM | inactive
47 | YSSSSSTYNAWFSMPESHEL | 0.264 ± 0.15
48 | GWVVRRINAVVFVASGSI | 5.601 ± 0.048
49 | ILGVRYVSCSGSLGNWAQRG | 4.87 ± 0.098
50 | WLRLPICDLQLLNWADLRFV | 0.236 ± 1.1

Row | Substance | amyloid nucleation score
51 | SEFVGSYWGFDLMLGLD | -0.807 ± 1
52 | RRRIRVCGSWFSGYN | -0.527 ± 0.5
53 | GYYCDYSNTSRATRNMASKR | -0.719 ± 0.32
54 | IIDNYNYMF | -0.963 ± 1.1
55 | TMRHQNASWLGVYINSSRKY | 3.72 ± 0.078
56 | ELGYCYSFGHSQFFKQSKHG | 3.03 ± 0.071
57 | GMADWNWFFPILFDPMGTGL | -0.357 ± 0.49
58 | VLFRELRSTTASRTGDGDMM | 4.61 ± 0.057
59 | GHSSFDQTAFSDSAGSLRML | inactive
60 | NELFWFNMSFSCPKWGICNL | 4.17 ± 0.043
61 | YVITSSPSLYACICSGVSVR | 4.87 ± 0.1
62 | CYGVFLVVSWDHGGDQIGVV | -0.482 ± 0.48
63 | CIISFGLMHEYCYVAM | 1.9 ± 0.13
64 | VTFSSIVTISLISYLQRFWR | 5.77 ± 0.04
65 | LFVHYFSVGYSHLLCRDCTS | 3.23 ± 0.1
66 | VYCRNVELIGAYGIFAGSHI | -0.187 ± 0.79
67 | NFMNKMFALTWCCIDKILCG | -1.1 ± 0.78
68 | GGDAQACVGHLSHKLCWLSV | 1.65 ± 0.16
69 | RSSRHLDAYIEAS | 0.877 ± 0.28
70 | PIYCNQRVDRALTMFTQFRA | -0.121 ± 1.1
71 | ITPFHT | -0.448 ± 0.3
72 | CKKKSRTDCMLSFCVCFDGV | 7.276 ± 0.035
73 | RCLSKVLSLL | -1.72 ± 0.54
74 | YTQAYILVLIVLLLLSVMVI | 5.638 ± 0.054
75 | FRFCHCLEFQVY | 0.126 ± 0.5

Row | Substance | amyloid nucleation score
76 | APHSLVVGCTVVLF | 7.589 ± 0.037
77 | QSRWSFKTYYSREKW | -0.278 ± 0.39
78 | FGYHGSYMWYAFQGHYNKGY | 0.743 ± 0.42
79 | WSYCVNERSVIKQGLTCAYV | -0.28 ± 0.76
80 | CQPNLWARVCLVWCYW | 3 ± 0.094
81 | AALPFHEVPTGLMITRAFWD | 3.72 ± 0.13
82 | MYMARCKASTVSDYQNS | -0.393 ± 0.55
83 | KQFDMDAWLTWSRMVFMSPV | 0.044 ± 0.39
84 | SDSGQVVNSLGSKEGIRFFD | -1.17 ± 0.38
85 | GNSIVENFLCSRHQCYVM | 8.598 ± 0.046
86 | WGSEAHTDRVVQYWILALQR | 1.19 ± 0.12
87 | SELFQLIGILHSNLFGIYMF | -0.427 ± 0.74
88 | MFVVKNRGCVM | -0.16 ± 0.3
89 | TFRDYQYMYFRSRNII | 0.034 ± 1.1
90 | TFGCEPVGPVA | 0.409 ± 0.8
91 | LFKRGIVGDRGTKG | -0.905 ± 0.48
92 | VLPGKVRPFCGSMCNSFFSL | 0.157 ± 1
93 | YWFFCGRWK | 4.7 ± 0.11
94 | HLFACSTYKSSHRVQVCTVI | -0.497 ± 1
95 | YVYSVYNFLRVLICAGTG | 6.185 ± 0.037
96 | PTSCSSRN | -0.055 ± 1.1
97 | FLFAKYGSIIDTSVVDRLAR | 0.979 ± 0.5
98 | CTLRGGYISWVQVYE | 2.1 ± 0.1
99 | EPKFCGMDNHEL | 3.78 ± 0.14
100 | SYCSL | 0.548 ± 0.38

Row | Substance | amyloid nucleation score
101 | MLFLMGPVWTCFKICNSLLT | 0.333 ± 0.23
102 | MWESQGHSLAV | inactive
103 | SSWLRINRIYLYEQL | -0.305 ± 1
104 | RELYYRMAVLNQSTTTLYRG | inactive
105 | CWRVDSFVLGNHNGIGVCFV | -0.918 ± 0.41
106 | FRALFSNVVRVDMAMAAGFL | -1.79 ± 0.78
107 | GNVVMN | 0.863 ± 0.18
108 | LSYVFIVECPSSAGMLPRPF | 4.01 ± 0.13
109 | GGTSAAS | 1.01 ± 0.22
110 | SFSILLEDTSS | -0.162 ± 0.76
111 | LDPSVLMLWLFYRVQSLHVS | 0.008 ± 0.35
112 | NTRRSFVRVYFNGLGLCGAN | inactive
113 | VVWCGTYVYHDV | 8.885 ± 0.075
114 | NIAMSDMDILLMQRAQKWLR | 1.1 ± 0.54
115 | TERLICMRTSMPSFIYVFWD | -0.847 ± 0.54
116 | SLGSSWCNSDLLAL | -0.311 ± 1.1
117 | RTDRLCARHLGLFDDTVPET | 0.664 ± 0.21
118 | SLVSFFVIKRSYFSTRLCTG | -0.399 ± 0.61
119 | AGCGIPALTYNNRRAKTHAQ | 0.901 ± 0.53
120 | FIVSDSRCVGNVTNGQSVLS | -0.97 ± 0.63
121 | TSVFFQGIALP | 8.228 ± 0.029
122 | VIYIWVSVPITPWESIIRGI | inactive
123 | GGTNYANLMLALWFVVMIST | -0.295 ± 0.44
124 | YTTRSVMVSCGYCR | -0.29 ± 0.27
125 | MFCKLRFSVFLAWVDVK | 0.356 ± 0.6

Row | Substance | amyloid nucleation score
126 | CCFVLTVR | 5.174 ± 0.035
127 | VDWCWGLWT | 0.945 ± 0.24
128 | FRYLYVLYGFYMVVTWYLRV | -0.088 ± 0.63
129 | SIQLRVK | inactive
130 | FTCAYA | inactive
131 | QIGNVFNRY | -0.283 ± 1
132 | ARSMVMHYFWGSTLAPESKF | -0.801 ± 0.45
133 | DLGDKFL | 1.67 ± 0.23
134 | SILFNVARGCAGVPNLKSYS | -0.43 ± 0.56
135 | RNLGLMVTILSAELFRRCLW | -0.812 ± 0.23
136 | REDRNATLCIVV | 2.67 ± 0.13
137 | IIYYWAPLVITMEFQERRVR | 6.395 ± 0.038
138 | IGMSHRSQACESFKVKCPTY | 1.66 ± 0.2
139 | WDCGQTIYGFWDD | -0.58 ± 0.48
140 | GGLAGWSGWNTQDELGCGTT | 0.775 ± 0.4
141 | SRCNISTRLLATLDVLQEKE | 2.25 ± 0.08
142 | IDGYIQGFHGIRLEQLGGVE | 0.152 ± 0.48
143 | GGYICFQMFFYCVFARNY | 1.27 ± 0.082
144 | WMSVG | -0.081 ± 1.1
145 | DIVRSYV | -0.27 ± 0.45
146 | GSSTMWNVLVAWLRTIL | inactive
147 | LTHQRRRLMMCI | 0.283 ± 0.32
148 | WHGQQDLDYYHFT | inactive
149 | RWYSYYTQGDFRRFFLGSN | inactive
150 | VISSMFNLIKYGSVWSLRGL | -0.706 ± 1

Row | Substance | amyloid nucleation score
151 | TLSSYLVALNQRGAGSLWYV | 0.825 ± 0.8
152 | LVIALSFCY | 3.57 ± 0.069
153 | RLLALLGSCYWAGLDVSARI | 3.36 ± 0.097
154 | PCRYSSKSNYTW | -0.507 ± 0.76
155 | PNALQGSRDVCTLKRLASEA | 0.238 ± 0.57
156 | ITIFTSWPVIMLETVMCYCN | 5.32 ± 0.079
157 | VGIRRYVRFKVLHNRVNVHE | inactive
158 | VNSLSGHFFVFFRLLFTTMV | -1.1 ± 0.41
159 | HISYVNSSRL | 4.05 ± 0.078
160 | LVLYVSKMPYMSEPRSIILR | 0.64 ± 0.58
161 | RSVACVDDMHE | 4.916 ± 0.049
162 | NVLRFSSTSLYGLAFLAEGS | -0.577 ± 0.3
163 | LLTNAVRGLG | 0.302 ± 0.56
164 | LKTACVDALLH | 0.258 ± 0.26
165 | ANYMRYYSGLICFTESRYMS | 1.5 ± 0.17
166 | LLDYLYDIGRHTKGK | -0.337 ± 1.1
167 | IRDFYILAYRWLSQSHVMAN | inactive
168 | VSVRGTHVL | -0.28 ± 0.61
169 | MGCYFSSLSTTHKGAVDVQL | 0.13 ± 0.24
170 | TGGTVMRVR | 0.297 ± 0.29
171 | LIAGYDAWWSSKMSRHKVSV | -0.232 ± 0.27
172 | RISRFCL | 1.52 ± 0.26
173 | IRMEFCDAMTICLLKQR | 3.72 ± 0.056
